Earlier results, collected in patent US12514872B2, “Polycationic polymers for use in treating and detecting cancer” (Duke University, priority 2015, dated 2026).

Tests used:
[1] = system: RNA oligonucleotide coagulation-factor inhibitors (aptamers); settings: previous work, WO2008/121354
[2] = system: orthotopic xenograft pancreatic tumors
PC tumor cell lines = settings: in vitro

For protamine sulfate, the “reversal of anticoagulant activity of aptamers” value [1] is listed as “reverse the anticoagulant activity”.

B1: DNAse I: enzyme used in a cited PC study to treat tumor cells associated with extracellular DNA (protein, UniProt P24855 23-282, looked up)
Deoxyribonuclease-1: LKIAAFNIQTFGETKMSNATLVSYIVQILSRYDIALVQEVRDSHLTAVGKLLDNLNQDAPDTYHYVVSEPLGRNSYKERYLFVYRPDQVSAVDSYYYDDGCEPCGNDTFNREPAIVRFFSRFTEVREFAIVPLHAAPGDAVAEIDALYDVYLDVQEKWGLEDVMLMGDFNAGCSYVRPSQWSSIRLWTSPTFQWLIPDSADTTATPTHCAYDRIVVAGMLLRGAVVPDSALPFNFQAAYGLSDQLAQAISDHYPVEVMLK
In the case of B1, the tumor metastasis [2] is given as “reduction in tumor metastasis” and the “cell invasion, migration and adhesion” value (PC tumor cell lines) is given as “reduced cell invasion, migration, and adhesion”.
